Kd data for nine molecules are collected here from PMC9674830 (2022).

Positions of bridges follow the written chain, without caps; N, C: chain ends. Non-standard residues stand in square brackets, D forms with d. No end group written: not given here. pentenylalanine = pentenylalanine, unnatural amino acid di-substituted at Cα, crosslinked by ring-closing metathesis

Usually Kd stands for a measure of binding affinity in units of concentration. A high value points to lower affinity.

The chains are these.
B1: C-terminal domain of subunit 1 of the general transcription regulator TFIIF (RAP74-CTD) (domain or fragment)
chain: GDVQVTEDAVRRYLTRKPMTTKDLLKKFQTKKTGLSSEQTVNVLAQILKRLNPERKMINDKMHFSLKE

In the first experiment the target is γCtrl. The experiment can be described thus: NMR.
As to B1, the Kd was more than 1000 µM.

The next experiment concerns the target B1. As to the kind of experiment: NMR.
Consider KKPGASLSWLQLFQEEQAAQAAKK (designed binder) [peptide γ], for which the Kd was found to be 626 µM. In the case of KKPGASLAALQALQALQAAQAAKKY [peptide (P3-7)2], the Kd was more than 1000 µM. Same read-out and setting: the figure for KKPGASAAAAQEAQLAQLAQELQAAQAAKKY [peptide δ_(ctrl)] is more than 1000 µM. Same read-out and setting: then SAAASSSWHTLFTAEEGQLYG [AR-WHTLF peptide], with more than 1000 µM; and KKPGASAAAAQE[pentenylalanine]QLA[pentenylalanine]LAQELQAAQAAKKY (staple 13-17) [peptide δ_(Stpl)], with more than 1000 µM; and KKPGASASW[pentenylalanine]QLF[pentenylalanine]EEQAAQAAKK (staple 10-14) [peptide γ_(Stpl)], with 202 µM.

On to KKPGASLAALQALQALQALQALQAAQAAKKY [peptide (P3-7)3], for which the Kd was more than 1000 µM.

Another experiment has as its target B1. As to the kind of experiment: ITC.
On to KKPGASLAALQELQLLQLLQELQAAQAAKKY (designed binder) [peptide δ], for which binding was characterised by a dissociation constant (Kd) of 256 µM.
